How the values were obtained:
[1] = biological target: purified HiBiT; experiment: split reporter (BiFC, NanoBiT); NLuc complementation luminescence: purified HiBiT (1 nM) incubated with increasing concentrations of purified LgBiT; vehicle
[2] = biological target: genome-edited CXCL12-HiBiT (human (endogenous in HEK293)) (UniProt P48061); experiment: split reporter (BiFC, NanoBiT); NLuc complementation luminescence: live HEK293 cells expressing genome-edited CXCL12-HiBiT incubated with increasing concentrations of purified LgBiT; vehicle
[3] = biological target: genome-edited CXCL12-HiBiT (human (endogenous in HEK293)) (UniProt P48061); experiment: split reporter (BiFC, NanoBiT); NLuc complementation luminescence: live HEK293 cells expressing genome-edited CXCL12-HiBiT incubated with increasing concentrations of purified LgBiT; with surfen (10 uM)
[4] = biological target: genome-edited CXCL12-HiBiT (human (endogenous in HEK293)) (UniProt P48061); experiment: split reporter (BiFC, NanoBiT); NLuc complementation luminescence: supernatants from HEK293 cells expressing genome-edited CXCL12-HiBiT incubated with increasing concentrations of purified LgBiT; vehicle
[5] = biological target: genome-edited CXCL12-HiBiT (human (endogenous in HEK293)) (UniProt P48061); experiment: split reporter (BiFC, NanoBiT); NLuc complementation luminescence: supernatants from HEK293 cells expressing genome-edited CXCL12-HiBiT incubated with increasing concentrations of purified LgBiT; with surfen (10 uM)
[6] = biological target: genome-edited CXCL12-HiBiT (human (endogenous in HEK293)) (UniProt P48061); experiment: split reporter (BiFC, NanoBiT); NLuc complementation luminescence: supernatants from HEK293 cells expressing genome-edited CXCL12-HiBiT incubated with increasing concentrations of purified LgBiT; with heparan sulfate (30 ug/mL)

Kd [1]: 7.15 nM
Kd [2]: 11.6 nM
Kd [3]: 5.93 nM
Kd [4]: 17.5 nM
Kd [5]: 7.46 nM
Kd [6]: 16.1 nM
Substance: LgBiT (18 kDa NLuc fragment)
